The nanobody polyreactivity screen of Harvey et al. (2022)

Experiment: yeast display, Sf9 membrane polyspecificity reagent, FACS + sequencing; frameworks hold sequencing errors
Outline: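 Synthetic nanobody libraries on Saccharomyces cerevisiae BJ5465 were galactose-induced for 36–48 hours, stained 1 hour at 4 °C with 10% biotinylated, detergent-solubilized Sf9 membrane reagent and enriched on streptavidin microbeads. FACS then separated cells into low and high (top ~1%) gates by anti-HA (expression) and streptavidin (reagent binding) fluorescence. Genes were colony-PCR amplified, MiSeq 2 × 250 sequenced and CDR-length filtered. A clone's polyreactivity label is that of its gate of origin.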

Sequence | polyreactivity (PSR sort gate)
QVQLVESGGGLVQAGGSLRLSCAASGSTFGPNAMGWYRQAPGKERELVATISSGGSTYYADSVKGRFTISRDNAKNTVYLQMNSLKPEDTAVYYCAVRTIIRPVDLYDYWGQGTQVTVSS | low polyreactivity
QVQLVESGGGLVQAGGSLRLSCAASGRILTGYAMGWYRQAPGKARELVAAISNDTDSTHYADSVKGRFTISRDNAKNTVYLQMNSLKPEDTAVYYCATDAPLQKRWRRFDYWGQGTQVTVSS | low polyreactivity
QFQLEESVGGLVQAGGSLRLSCAASGFTFKSYAMGWYRQATVNVREFVARITYSGGGTYYADSVKGRFTISRDNAKNTVYLLMNSLKPEDTAVYYCARPFNRYLGLTRNGYTSDYWGQGTQVTVSS | high polyreactivity
QVQLVESGGGLLQAGGSLRLSFAASGSIVGPYGRGWYRQAPGKERELVAAISTVGGSTYYADSVKGRFTISRDNAKNTVYLQMNSLTPEDTAGYYCAKVPRYIELSRQATHSYDYWGHGTQVTVSS | low polyreactivity
QVQLVESGGGLVQAGGSLRLSCAASGSTFDTYAMGWYRPAPGKERELVAAINSGGGTNYADSVKGLFTISRDNAKNTVYLQMNSLKPEDSSVYYCSTDIRRDAGGVDFDYWGQGTQLTVSS | low polyreactivity
QVQLVESGGGLVQAGGSLRLSCAASGYIFHYNAMGWYRQAPGKEREFVAAISQGGGSTYYADSVKGRFTISRDNAKNTVYLQMNSLKPEDTAVYYCAADYRSGYREMDYWGQGTQVTVSS | low polyreactivity
QVQLVESGGGLLQAGGSLRLSCAASGIIYRPYAMGWYRQAPGKERELVAAITGSGVSTYYADSVKGRFTISRDNAKNTVYLQMNSLKPEDTAVYYCAKRYNRGYHRYDSWGQGTQVTVSS | low polyreactivity
QVQLVESGGGLVQAGGSLRLSCAASGYTFFKNAMGWYRQAPGKERELVAAISYSGGRTYYADSVKGRFTISRDNAKNTVYLQMNSLKPEDTAVYYCAKATRVITDDGSYGYWGQGTQVTVSS | high polyreactivity
QVQLVESGGGLVQAGGSLRLSCAASGSIFSSYAMGWYRQAPGKERELVAAITTRGDSTRYADSVKGRFTISRDNAKNTVYLQMNSLKPEHTAVYYCNARYRDPYWDSGYWGQGTQVTVSS | high polyreactivity
QGQLVETGGGLVQAGGSLRLSCAASGRIFDDNAMGWYRQAPGKERELVASITVSTGSTYYADSVKGRFTISRDNAKNTVYLKMNSLKPEDTAVYYCAKDNSLPDYDYWGQGSQVTVSS | low polyreactivity
QVQLVESGGGLVQAGGSLRLSCAASGIIFRYAMGWYRQAPGKERELVARITVGSTYYADSVKGRFTISRDNAKNTVYLQMNSLKPEDTAVYYCAARVQHYLATDDYWGQGTQVTVSS | low polyreactivity
QVQLVESGGGLVQAGGSLRLSCAASGITIYEYAMGWYRQAPGKERELVAAITSGGTTNYADSVKGRFTISRDNAKNTVYLQMNSLKPEDTAVYYCAKDGGEGYDYWGQGTQVTVSS | low polyreactivity
QVHLVESGGCLVQAGGSLRLSCAASGNSFVSNAMGWYIQAPGKERELVAAIDSGGSTNYADSVKGRFTISRDNAKNTVYLQMNSLKPVDTAVYYCNRTSVYYYYWGQGTQVTVSS | low polyreactivity
QVQLVESGAGLVQAGGSLRLSCAASGLTFLQNALGWSRQAPGNERELVAAINIGTNTYADSVKGRFTISRDNAKNTVYLQMNSLKPEDTAVDYCNTDSAPYYWLSDNYDSWGQGTQVTVSS | low polyreactivity
QVQLVVSGGGLVQAGGSLRLSCAASGRIFRSYAKGWYRQAPGKERELVAAINYGGTSTYYADSVKGRFTISRDNAKNTVYLQMNSLKPEDTAVYYCAARRPTSPRRYESWGQGTQVTVSS | high polyreactivity
QVQLVESVGGLVQAGGSLRISCAASGRIFYNYAMGRYRQAPGKERELVAAISGSGGSTYYADSVKGRFTISRDIAKNTVYLQMNSLIPEDTAVFYCSTSGPQYYSRNFDYWGQGTQVTVSS | low polyreactivity
QVQLVESGGGLVQAGGSLRLSCAASGIIFSNYAMGWYRQAPGKERDLVAAITRSGGRTYYADSVKGRFTISRDNAKNTVYLQMNSLKPEDTAVYYCAATGRSGVLSSYYYWGQGTQVTVSS | high polyreactivity
QVQLVESGGGLVQAGGSLRLSCAASGRIFRVYAMGWYSQAPGKERELVASISSGGSTNYADSVKGRFTISRDNANNTVYLQMNSLKPEDTAVYYCAADRSGSFYKLDYWGQGTHVTVSS | low polyreactivity
QVQLVESGGGLVQAGGSLRLSCAASGSTFTGNAMGWYRQAPGKERELVADISSGASTNYADSVKGRFTISRDNAKNTVYLQMNSLKPEDTAVFYCAADSWDYDSRMDYWGQGTQVTVSS | low polyreactivity
QVQLVESRGGLLQAGGTLRLSCAASGLTITTYTMGWSIQAPGTERELVASINYRGGRTYYADSVKGRFSISRDNAKNTVYLQMNSLKPEDTAVYYCAKSRYYRRRQYYHYDYCGQGTQVTVSS | high polyreactivity
QGQLVESGGGLVQAGGSLRLSCAASGSIFPYNDMGWYRQAPRKERELFAAINSDGSTDYADSVKGRFTISRDNAKNTVYLLMKSLKPEDTAVYDCNGDYVATFLSPPTSVSYGYWGQVTQVTVSS | low polyreactivity

Sequence | polyreactivity (PSR sort gate)
QVQLVESGGGLVPAGGSLRLSCAASGNIYRYYVMGWYRQAPGKEREFVAAITSSGGSTYYADSVKGRFTISRDNAKNTVYLQMNSLKPEDTAVYYCAKDYWDPGWAEYDDWGQGTQVTVSS | low polyreactivity
QVQLVESGGGLVQAGGSLRLSCAASGRTYIYNAMGWYRQAPGKERELVAAISFRGGSTYYADSVKGRFTISRDNAKNTVYLQMNSLKPEDTAVYYCNAVRFYRYGWGQGTQVTVSS | high polyreactivity
QVQLVESGGGLVQVGGSLRLSCAASGGIFSGNAMGWSRPAPGKERELVAGITNGGRTTYADSVKGRFTISRDNAKNTVYLQMNSLKPEDTAVYYCNVYVSAGEEDEYWGQGTQVTVSS | low polyreactivity
QVQLVESGGGLVQAGGSLRLSSAASGRTFYKYAMGWYRQAPGKERELVAAISWNGGSTYYADSVKGRFTISRDNAKNTVYLQMNSLKPEDTAVYYCNVVNQRSRTGDYWGQGTQVTVSS | high polyreactivity
QVQLVESGGGLVQAGGSLRLSCAASGRTFRYNAMGWYRQAPGKERELVASITSGGSTNYADSVKGRFTISRDNAKNTVYLQMNSLIPEDTAVYYCAADERRPYWQHSIGSGRPFDYWGQGTQVTVSS | low polyreactivity
QVQLVESGGGLVQAGGSLRLSCASSGLIFYDNMGWYRQAPGKETELVAAISSSGGSTSYADSVKGRFTISRDNAKNTVYLQMNSLKPEDTAVYYCAADSYPAYLGFFGFDYWGQGTQVTVSS | low polyreactivity
QVQLVESGGGLVQAGGSLRLSCAACGSTFWYYAMGWYRQAPGKEREFVAAISKSGDSTNYADSVKGRFTISRDNAKNTVYLQMNSLKPEDTAVYYCAATRSSGRFRYYYWGQGTQVTVSS | high polyreactivity
QVQLVESGGGLVQAGGSLRLSCAASGSIFDWYVMGWYRQARGKERELVAAITSTGSTYYADSVKGRFTISRDNAKNTVYLQMNSLKPEDTAVYYCAAQRYSTFTYDYWGQGTQVTVSS | low polyreactivity
QVQLVESGGGLVQAGGSLRLSCAASGSTFPFNAMGWYRQAPGKEREFVAVINSGGDSTYYADSVKGRFTISRDNAKNTVYLQMNSLKPEDTAVYYCNAEDTRNDYDYWGQGTQVTVSS | low polyreactivity
QVQLVESGGGLVQAGGSLRLSCAASGFIFFRNAMGWYRQAPGKERELVAAISRSGGITYYADSVKGRFTISRDNAKNTVYLQMNSLKPEDTAVYYCNAAKASREQWTSFDYWGQGTQVTVSS | high polyreactivity
QVQLVESCGGLVQAGGSLRLSCAASGRISQNAMGWYRQPPVKERELVAAITFSGGSTYYADSVKGRFTISRDNAKNTVYLQMNSLKPEDTAVYYCNGDYGDWPTAGDYWGQGTQVTVSS | low polyreactivity
QVQLVESGGGLVQAGGSLRLSCPASGIIFKGYAMGWYRQAPGKERELVAAISQSGGSTYYADSVKGRFTISRDNAKNTVYLQMNSLKPEDTAVYYCNARYSRVVPRYYYWGQGTQVTVSS | high polyreactivity
QVQLVESGGGLVQAGGSLRLSCAASGRTFTKYAMGWDRQAPGKERELVAVISVIGGTNYADSVKWRFTISRDNAKNTVYLQMNSLKPEDTAVYYCAAVSREHDYWGQGTQVTVSS | high polyreactivity
QVQLVESGGGLVQAGGSLRLSCAASGRIFRYYAMGWYIQAPGKERELVAAISKSGGGTFYADSVKGRFTISRDNAKNTVYLQMNSLKPEDTEVYYCAARDKGLGKHDYWGQGTQVTVSS | low polyreactivity
QVQLVESGGGLVQAGGSLRLSCAASGRSFYLYAMGWYRQAPGKERELVASISWNGGSTYYADSVKGRFTISRDNAKNTVYLQMNSLKPEDTAVYYCATDSHRSRLNRPYQLFPAYYYWGQGTQVTVSS | low polyreactivity
QVQLGESGAGLVQAGGSLRLSCAASGRIFLIKAMGCDRQAPGKERELVAAIRRSVGSTYYADSVKGRFTISRDNAKNTVYLQMNSLKPEDTAVYYCATRDYYTYTGRTRYYYWGQGTQVTVSS | high polyreactivity
QVQLVESGGGLVQAGGSLRLSCAASGSTLGRYAMGWYRQAPGKERELVAAISSSGTTYYADSVKGRITISRDNAKNTVYLQMNSLKPEDTAVYYCNARGFRVARHAAWYQYDYWGQGTQVTVSS | high polyreactivity
QGQLVESWGGLVQAGGSLRLICAASGFNLGRYAKGWYRQAPGKERELVAAISIGGRTNYADSVKERFTISRDNSKTSVYLHLKSLKPEVTAVYYSAADVRGSAYTTGDYWGQGTQVTVTS | low polyreactivity
QVQLVESGGGLVQAGGSLRLSCAASGSTFGFYMGWYRQAPGKERELVAAIDSSGGITYADSVKGRFTISRDNAKNTVYLQMNSLKPEDTAVYYCNTSYPIAPEDDYWGQGTQVTVSS | low polyreactivity
QVQLVESGGGLVQAGGSLRLSCAASGRIFDIYAMGWYRQAPGKERELVAAIDESGGSTYYADSVKGRFTISRDNAKNTVYLQMNSLKPEDTAVYYCATVDTWTISYGWYCFTYEYWGQCTQVTVSS | low polyreactivity
